Data on 11 molecules can be found in patent US20260265403A1 (TJ BIOPHARMA SHANGHAI, published 2026).

As a reminder, the EC50 (read off the curve) is the concentration that produces a half-maximal response. Higher therefore signals a less potent agent. Usually Kd stands for the equilibrium constant for the complex coming apart. A low value points to higher affinity. The term koff denotes a measure of how fast the partners let go of each other. High values mean a short-lived complex, low ones a long-lived complex. For orientation: kon means the rate constant with which the complex forms. Read a low kon as slow association. For orientation: EC50 means the midpoint of the concentration-response curve.

Substitutions are numbered along the chain they refer to.

Assay [1] concerns the target T1, human CD24 on cells (human, UniProt P25063 27-59).
T1 construct: whole, on cells; One molecule for all cell lines; the cell line is named under assay or readout; also called cell surface CD24; cell-based CD24
T1 chain (looked up): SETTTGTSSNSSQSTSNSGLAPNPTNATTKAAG
The assay can be described thus: flow cytometry (MFI), MCF-7 cells [Cont'd) B]. For orientation: In flow cytometry, cells or beads pass a laser one at a time.

The target of assay [2] is T1, human CD24 on cells. Kind of assay: flow cytometry (MFI), NALM6 cells [Cont'd) B].
Assay [3] addresses T1, human CD24 on cells. Kind of assay: cell-based or functional assay.
Assay [4] has as its target T1, human CD24 on cells. Kind of assay: flow cytometry (GMFI), MCF-7 cells.
Assay [5] addresses T1, human CD24 on cells. Kind of assay: flow cytometry (GMFI), NALM6 cells.
In assay [6] the target is T2, CD24-his protein (human, UniProt P25063 27-59, posttranslational modification (purified from mammalian cell)).
T2 construct: Purified from mammalian (HEK293) cells; also called soluble recombinant CD24 protein; human HEK293 purified CD24-his protein; not shown: His tag
T2 chain (looked up): T1 chain (looked up)
The assay can be described thus: ELISA, CD24-his(HEK 293) [Cont'd) B]. On the technique in general: An ELISA detects its analyte on a solid surface through an enzyme-linked reagent.

In assay [7] the target is T1, human CD24 on cells. Kind of assay: flow cytometry (GMFI), MC38-hCD24 cells [Cont'd) C].
The target of assay [8] is T3, Human CD24 (human, UniProt P25063 27-59, limits assumed).
T3 chain (looked up): T1 chain (looked up)
Kind of assay: Biacore (SPR); antibody as ligand, human CD24 as analyte.

Another assay concerns the target T4, CD24-his-GST(Ecoli).
T4 construct: also called CD24-GST
T4 chain: T1 chain (looked up)
The assay can be described thus: ELISA, CD24-his-GST(Ecoli) [Cont'd) B].

For assay [9], the target named is T1, human CD24 on cells. The assay can be described thus: Siglec10-PE competition assay (GMFI); competitor Siglec-10; CD24 source not named on the sheet [Cont'd) D].
Assay [10] has as its target T1, human CD24 on cells. The assay can be described thus: flow cytometry (GMFI), MCF-7 cells [Cont'd) C].
In assay [11] the target is T1, human CD24 on cells. The assay can be described thus: flow cytometry (GMFI), SKOV3 cells; EC50 table under the graphs [Cont'd) B].
In assay [12] the target is T3, Human CD24. Kind of assay: SPR, second 1:1 binding column set.
In assay [13] the target is T3, Human CD24. Kind of assay: SPR affinity ranking, 1:1 binding, analyte conc. 19.71 nM.
Assay [14] addresses T3, Human CD24. Kind of assay: affinity ranking; antibody as ligand, Human CD24 as analyte.
The target in assay [15] is T1, human CD24 on cells. The assay can be described thus: flow cytometry (GMFI), MCF-7 cells; EC50 table under the graphs.
Assay [16] concerns the target T2, CD24-his protein. The assay can be described thus: Siglec10-PE competition assay (gMFI on the sheet); legend: Siglec-10-his-Biotin mixed with the antibody, plate coated with CD24 protein. The procedure:
Samples were washed three times with washing buffer. And then signal was tested.
CD24-his protein was firstly coated in 96-well plate overnight.

B1: 85-D5A10 (4434), IgG4, Kappa (antibody, V domains shown)
VH: EVQLQQSGPELVKPGASVKISCKASGYEFTGYHMNWVKQSPEKSLEWIGEINPITSDKTFNQKFKAKATLTVDRSSSTAYMHLKSLTSDDSAVYYCARRDYGTSLDYWGQGTTLTVSS
VL: DVQITQSPSYLAASPGETITIYCRASKSISKYLAWYQEKPEKTIRLLIYAGSTLQSGIPSRFRGSGSGKDFTLTVSGLEPEDFAMYYCQQHNEYPITFGAGTKLELI
For the molecule B1, the 50% effective concentration (EC50 (read off the curve)) with human CD24 on cells [1] was ~0.4 µg/mL. For the same molecule, in the assay with human CD24 on cells [2], the “EC50 (read off the curve)” value was ~0.4 µg/mL. In the assay with human CD24 on cells [3], the “EC50 of Phagocytosis assay, IgG4, Kappa; HEK293-CD24” value (from here on “EC50 … HEK293-CD24”) was 0.42 µg/mL; the “EC50 of Phagocytosis assay, IgG4, Kappa; MCF-7” value (shortened to “EC50 … MCF-7”) was 0.43 µg/mL; the “EC50 of Phagocytosis assay, IgG4, Kappa; NALM6” value (from here on “EC50 … NALM6”) turned out to be 0.47 µg/mL; the “EC50 of Phagocytosis assay, IgG4, Kappa; OVCAR3” value (“EC50 … OVCAR3” for short) stood at 0.38 µg/mL.

B2: 74-H4C6 (4451), IgG4, Kappa (antibody, V domains shown)
VH: B1 VH with E28D, A66S, H82Y, D89E
VL: B1 VL with I44N, Q55H, I107K
Consider B2, for which, in the assay with human CD24 on cells [2], the 50% effective concentration (EC50 (read off the curve)) was ~0.4 µg/mL. In addition, in the assay with human CD24 on cells [3], the “EC50 … HEK293-CD24” value was determined as 0.44 µg/mL; the “EC50 … MCF-7” value was found to be 0.74 µg/mL; the “EC50 … NALM6” value was found to be 0.32 µg/mL; the “EC50 … OVCAR3” value was determined as 0.16 µg/mL.

B3: 89-E8C12 (4428), IgG4, Kappa (antibody, V domains shown)
VH: B1 VH with E28D, H33Y, V37M, D57H, K58N, D89E
VL: B1 VL with K69T, I96L, I107K
Consider B3, for which the “EC50 (read off the curve)” value with human CD24 on cells [2] was ~0.5 µg/mL. In addition, in the assay with human CD24 on cells [3], the “EC50 … HEK293-CD24” value turned out to be 0.43 µg/mL; the “EC50 … MCF-7” value amounted to 0.96 µg/mL; the “EC50 … NALM6” value was determined as 0.57 µg/mL; the “EC50 … OVCAR3” value was 0.16 µg/mL.

B4: 4451H-IgG4 (antibody, V domains shown)
VH: QVQLVQSGAEVKKPGASVKVSCKASGYDFTGYHMNWVRQAPGQGLEWMGEINPITSDKTFNQKFKSRVTMTRDTSISTAYMELSRLRSDDTAVYYCARRDYGTSLDYWGQGTTVTVSS
VL: DIQLTQSPSFLSASVGDRVTITCRASKSISKYLAWYQQKPGKAPKLLIYAGSTLHSGIPSRFRGSGSGTEFTLTISSLQPEDFATYYCQQHNEYPITFGQGTKLEIK
notes: also called VH1+VL3 fused with human IgG4 Fc
With B4, the 50% effective concentration (EC50 (read off the curve)) with human CD24 on cells [4] was ~0.2 µg/mL; with human CD24 on cells [5], ~0.3 µg/mL; in the assay with CD24-his protein [6], ~0.02 µg/mL; in the assay with human CD24 on cells [7], ~0.2 µg/mL; in the assay with CD24-his-GST(Ecoli) it was ~0.06 µg/mL; with human CD24 on cells [10], ~0.2 µg/mL. Binding in the assay with Human CD24 [8] was put at a Kd of 15.5 nM. In the assay with Human CD24 [8], this molecule registered an off-rate constant (koff) of 0.0175 s⁻¹. This molecule also showed a kon with Human CD24 [8] of 1.13e+06 M⁻¹ s⁻¹. Moreover, the “IC50 (read off the curve)” value with human CD24 on cells [9] was ~1 µg/mL.

B5: VH1 + VL3 (4451H) (antibody, V domains shown)
VH: B4 VH
VL: B4 VL
notes: also called Antibody No 0; Parental
On to B5, for which the EC50 is 0.44 µg/mL in the assay with human CD24 on cells [11] and 0.39 µg/mL in the assay with human CD24 on cells [15]. For the same molecule, the “apparent Kd (pooled screen)” value with Human CD24 [12] is 25.1 nM; in the assay with Human CD24 [13], 172 nM; with Human CD24 [14], 23.1 nM. In addition, the entries for the “apparent koff (pooled screen)” value with Human CD24 [12], in the assay with Human CD24 [13] and with Human CD24 [14] were 0.0192 s⁻¹, 0.0275 s⁻¹ and 0.0158 s⁻¹, respectively. Also, the results for the “apparent kon (pooled screen)” value with Human CD24 [12], in the assay with Human CD24 [13] and with Human CD24 [14] were 763000 M⁻¹ s⁻¹, 160000 M⁻¹ s⁻¹ and 685000 M⁻¹ s⁻¹, respectively.

B6: VH4 + VL3 (humanized 4451) (antibody, V domains shown)
VH: B4 VH with R38K, M48I, V68A, R72V, T74R
VL: B4 VL
notes: IgG expressed in HEK293
On to B6, for which the EC50 with human CD24 on cells [11] is 0.44 µg/mL. Besides, in the assay with Human CD24 [14], binding was characterised by a dissociation constant (Kd) of 8.84 nM, the dissociation rate constant (koff) came out at 0.0119 s⁻¹ and the kon turned out to be 1.34e+06 M⁻¹ s⁻¹. Besides, the midpoint of the response in the assay with human CD24 on cells [15], the EC50, lay at 0.45 µg/mL.

B7: VH4 + VL2 (humanized 4451) (antibody, V domains shown)
VH: B4 VH with R38K, M48I, V68A, R72V, T74R
VL: B4 VL with K45R, I58V
notes: IgG expressed in HEK293
Take B7: the concentration for a half-maximal effect (EC50) with human CD24 on cells [11] stood at 0.43 µg/mL. In the assay with Human CD24 [14], the Kd is 9 nM, the koff amounted to 0.0115 s⁻¹ and the on-rate (kon) was 1.28e+06 M⁻¹ s⁻¹. In the assay with human CD24 on cells [15], this molecule yielded an EC50 of 0.44 µg/mL.

B8: VH4 + VL1 (humanized 4451) (antibody, V domains shown)
VH: B4 VH with R38K, M48I, V68A, R72V, T74R
VL: B4 VL with I58V, R63S
notes: IgG expressed in HEK293
On to B8, for which the EC50 with human CD24 on cells [11] is 0.43 µg/mL. In the assay with Human CD24 [14], this molecule showed an equilibrium dissociation constant (Kd) of 8.33 nM, a koff of 0.0128 s⁻¹ and a kon of 1.54e+06 M⁻¹ s⁻¹. This molecule yielded an EC50 in the assay with human CD24 on cells [15] of 0.45 µg/mL.

B9: VH3 + VL4 (humanized 4451) (antibody, V domains shown)
VH: B4 VH with M48I, V68A, R72V
VL: B4 VL with T22Y, K45R
notes: IgG expressed in HEK293
With B9, in the assay with human CD24 on cells [11], it took 0.42 µg/mL to reach a half-maximal effect (EC50). Moreover, in the assay with Human CD24 [14], binding was put at a Kd of 24.8 nM, the koff was 0.0163 s⁻¹ and the kon came out at 655000 M⁻¹ s⁻¹. In the assay with human CD24 on cells [15], this molecule displayed an EC50 of 0.41 µg/mL.

B10: 4451HM15-IgG4 (antibody, V domains shown)
VH: B4 VH with N35G, T59Y
VL: B4 VL with K27A
notes: IgG4; also called IgG4 isoform of 4451HM15
As to B10, the “IC50 (read off the curve)” value in the assay with CD24-his protein [16] was ~1 µg/mL.

B11: VH3 + VL3 (humanized 4451) (antibody, V domains shown)
VH: B4 VH with M48I, V68A, R72V
VL: B4 VL
notes: IgG expressed in HEK293
In the assay with human CD24 on cells [11], B11 registered an EC50 of 0.42 µg/mL. Moreover, in the assay with Human CD24 [14], the Kd was 23.8 nM, the koff was determined as 0.027 s⁻¹ and the kon was determined as 1.13e+06 M⁻¹ s⁻¹. The molecule further showed a concentration giving a half-maximal response (EC50) in the assay with human CD24 on cells [15] of 0.42 µg/mL.
